Test results: patent US20240043517 (published 2024)
Numbering of substitutions follows the chain as printed.

Columns and labels:
Test in all cases: SPR
cynomolgus GDF-15 = target: T1, cynomolgus GDF-15 (cynomolgus monkey, UniProt G7PWZ3)
T1 chain: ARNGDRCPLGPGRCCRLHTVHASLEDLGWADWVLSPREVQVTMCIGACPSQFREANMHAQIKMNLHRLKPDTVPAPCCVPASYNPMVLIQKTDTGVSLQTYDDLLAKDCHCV

mouse GDF-15 = target: T2, mouse GDF-15 (mouse, UniProt Q9Z0J7)
T2 chain: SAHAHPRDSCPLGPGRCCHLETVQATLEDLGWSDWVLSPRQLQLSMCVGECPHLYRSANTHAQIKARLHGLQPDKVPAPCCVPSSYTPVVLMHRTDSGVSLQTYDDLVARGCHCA

human GDF-15 = target: T3, human GDF-15 (human, UniProt Q99988)
T3 chain: T1 chain with R6H, H21R, E54A, M63T, N64S, V112I

rat GDF-15 = target: T4, rat GDF-15 (rat, UniProt Q9Z0J6)
T4 chain: T2 chain with A4L, Q63L, K75R, R110Q

B1: CTL-002 (antibody, V domains shown)
VH: QITLKESGPTLVKPTQTLTLTCTFSGFSLSTSGMGVSWIRQPPGKGLEWLAHIYWDDDKRYNPTLKSRLTITKDPSKNQVVLTMTNMDPVDTATYYCARSSYGAMDYWGQGTLVTVSS
VL: DIVLTQSPSFLSASVGDRVTITCKASQNVGTNVAWFQQKPGKSPKALIYSASYRYSGVPDRFTGSGSGTEFTLTISSLQPEDFAAYFCQQYNNFPYTFGGGTKLEIKR
B1 was tested, and the Kd (cynomolgus GDF-15) was 0.108 nM, the Kd (mouse GDF-15) was 9.76 nM and the Kd (human GDF-15) was 0.0383 nM. For the same binder, the Kd (rat GDF-15) was 0.449 nM.
